Test results published in patent US20230235058A1 (OXFORD UNIVERSITY INNOVATION, published 2023).
Residue numbers refer to the chain shown, from its start. Numbers in names are those of the source.

T1: soluble cynomolgus macaque BTLA extracellular domain (BTLA K31-R151) (cynomolgus macaque)
T1 construct: also called cynomolgus BTLA; cyno BTLA
T1 chain: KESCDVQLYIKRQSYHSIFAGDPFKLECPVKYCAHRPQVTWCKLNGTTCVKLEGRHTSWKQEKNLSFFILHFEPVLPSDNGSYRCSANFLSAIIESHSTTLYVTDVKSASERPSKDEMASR

T2: human FcγR2B (human, UniProt P31994 43-217)
T2 construct: extracellular domain; also called hFcγR2B; CD32B
T2 sequence (looked up): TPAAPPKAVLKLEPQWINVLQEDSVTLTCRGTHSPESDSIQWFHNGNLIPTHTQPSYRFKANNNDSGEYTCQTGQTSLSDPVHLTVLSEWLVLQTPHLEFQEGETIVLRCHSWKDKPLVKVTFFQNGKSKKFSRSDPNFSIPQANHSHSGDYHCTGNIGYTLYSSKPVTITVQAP

T3: human FcγR2A 131R (human, UniProt P12318 34-217)
T3 construct: extracellular domain
T3 sequence (looked up): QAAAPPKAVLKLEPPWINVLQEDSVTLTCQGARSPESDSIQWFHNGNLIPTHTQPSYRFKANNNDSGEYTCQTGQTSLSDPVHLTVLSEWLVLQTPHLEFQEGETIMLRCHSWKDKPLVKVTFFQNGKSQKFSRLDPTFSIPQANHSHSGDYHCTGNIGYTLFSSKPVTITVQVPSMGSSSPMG

T4: human FcγR2A 131H (human, UniProt P12318 34-217)
T4 construct: extracellular domain
T4 sequence (looked up): T3 sequence (looked up) with R134H

B1: humanised 2.8.6 hIgG1 delta ac P238D (antibody)
chain 1: QVTLKESGPALVKPTQTLTLTCTVSGFSLTTYGVHWIRQPPGKALEWLGVMWPGGRTSYNPSLKSRLTITKDNSKSQVVLTMTNMDPVDTATYYCVRGDYEYDYYAMDYWGQGTLVTVSSASTKGPSVFPLAPSSKSTSGGTAALGCLVKDYFPEPVTVSWNSGALTSGVHTFPAVLQSSGLYSLSSVVTVPSSSLGTQTYICNVNHKPSNTKVDKKVEPKSCDKTHTCPPCPAPPVAGGDSVFLFPPKPKDTLMISRTPEVTCVVVDVSHEDPEVKFNWYVDGVEVHNAKTKPREEQYNSTYRVVSVLTVLHQDWLNGKEYKCKVSNKGLPSSIEKTISKAKGQPREPQVYTLPPSRDELTKNQVSLTCLVKGFYPSDIAVEWESNGQPENNYKTTPPVLDSDGSFFLYSKLTVDKSRWQQGNVFSCSVMHEALHNHYTQKSLSLSP
chain 2: EIVLTQSPATLSLSPGERATLSCRASSSVSYMHWYQQKPGQAPRPLIYATSNRATGIPARFSGSGSGTDYTLTISSLEPEDFAVYYCHQWSSNPYTFGQGTKLEIKRTVAAPSVFIFPPSDEQLKSGTASVVCLLNNFYPREAKVQWKVDNALQSGNSQESVTEQDSKDSTYSLSSTLTLSKADYEKHKVYACEVTHQGLSSPVTKSFNRGEC
B2: Engineered humanised 6.2 (Variant A) (antibody, V domains shown)
VH: EVQLVESGGGLVKPGGSLRLSCAASGFTLSSYGMSWVRQAPGKGLEWVASIRSEGQTYYPDSVKGRFTISRDNAKNTLYLQMSSLRAEDTAVYYCTRGGYYGSSPYYWGQGTTVTVSS
VL: DIVMTQSPLSLPVTPGEPASISCKSSQSLLYSSNQKNYLAWYQQKPGQSPKLLIYWASTRESGVPDRFSGSGSGTDFTLKISRVEAEDVGVYYCQQYYNYLTFGGGTKVEIKR
B3: humanised 2.8.6 hIgG1 delta ab P238D (antibody)
chain 1: QVTLKESGPALVKPTQTLTLTCTVSGFSLTTYGVHWIRQPPGKALEWLGVMWPGGRTSYNPSLKSRLTITKDNSKSQVVLTMTNMDPVDTATYYCVRGDYEYDYYAMDYWGQGTLVTVSSASTKGPSVFPLAPSSKSTSGGTAALGCLVKDYFPEPVTVSWNSGALTSGVHTFPAVLQSSGLYSLSSVVTVPSSSLGTQTYICNVNHKPSNTKVDKKVEPKSCDKTHTCPPCPAPPVAGDSVFLFPPKPKDTLMISRTPEVTCVVVDVSHEDPEVKFNWYVDGVEVHNAKTKPREEQYNSTYRVVSVLTVLHQDWLNGKEYKCKVSNKGLPSSIEKTISKAKGQPREPQVYTLPPSRDELTKNQVSLTCLVKGFYPSDIAVEWESNGQPENNYKTTPPVLDSDGSFFLYSKLTVDKSRWQQGNVFSCSVMHEALHNHYTQKSLSLSP
chain 2: B1 chain 2
B4: 8C4 (antibody, IgG1, V domains shown)
VH: DVQLQESGPGMVKPSQSLSLTCTVTGYSITSGYDWHWIRHFPGNKLEWMGYISYSGSTNYNPSLKSRISITHDTSKNHFFLKLNSVTTEDTATYYCARGTPVVAEDYFDYWGQGTTLTVSS
VL: QAVVTQESALSTSPGETVTLTCRSSTGAVTTSNYANWVQEKPDHLFTGLIGATNNRAPGVPARFSGSLIGDKAALTITGAQTEDEAIYFCALWYSNHLVFGGGTKLTVLG
notes: mIgG1
B5: 1H6 (antibody, IgG1, V domains shown)
VH: EVQLQQSVAELVRPGASVKLSCTASGFNIKNTYMHWVKQRPEQGLEWIGRIDPANGNTKYDPKFQGKATITADTSSNTAYVQLSSLTSEDTAIYYCALTYYGSSQHYFDYWGQGTTLTVSS
VL: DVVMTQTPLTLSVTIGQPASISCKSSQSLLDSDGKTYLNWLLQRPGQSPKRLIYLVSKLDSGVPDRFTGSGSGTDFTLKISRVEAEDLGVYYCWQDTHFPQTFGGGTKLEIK
notes: mIgG1
B6: 26B1 (antibody, IgG1, V domains shown)
VH: EVQLQQSGPVLVKPGASVKMSCKASGYTFTDYYLNWVKQSHGKSLEWIGLIDPYNGGSSCNQKFKGKATLTVDKSSSTAYMDLNSLTSEDSAVYYCARGNAMDYWGQGTSVTVSS
VL: DIVMTQSHKFMSTSVGDRVSITCKASQDVSTAVAWYQEKPGQSPKLLIYWASTRHTGVPDRFTGSGSGTDYILNISSVQAEDLALYYCQQHYIIPYMFGGGTKLEIK
notes: mIgG1
B7: 3A9 (antibody, IgG1, V domains shown)
VH: QVQLKQSGAELVRPGASVKLSCKASGYTFTDYYINWVKQRPGQGLEWIARIYPGSGNTYYNEKFKGKATLTAEKSSSTAYMQLSSLTSEDSAVYFCARGYGNSDYWGQGTTLTVSS
VL: DILLTQSPAILSVSPGERVSFSCRASQSIGTRIHWYQQRTNGSPRLLIKYASESISGIPSRFSGSGSGTDFTLSINSVESEDIADYYCQQSNSWPYTFGGGTKLEIK
notes: mIgG1
B8: 12F11 (antibody, IgG1, V domains shown)
VH: EVQLQQSGPELVKPGASVKISCKASGYTFTDYYMNWVKQSHGKSLEWIGDINPNNGGTSYNQKFKGKATLTVDKSSSTAYMELRSLTSEDSAVYYCARWRQLRSDYWGQGTTLTVSS
VL: DIQMTQSPASQSASLGESVTITCLASQTIGTWLAWYQQKPGKSPQLLIYAATSLADGVPSRFSGSGSGTKFSFKISSLQAEDFVSYYCQQLYSTPLTFGAGTKLELK
notes: mIgG1
B9: 24H7 (antibody, IgG1, V domains shown)
VH: QVQLQQSGAELVRPGASVTLSCKASGYTFTDYEIHWVKQTLVHGLEWIGPIDPDTGNTAYNQNLKGKAILTADKSSSTAYMELRSLTSEDSAVYYCTRGGYDSDWGFAYWGQGTLVTVSA
VL: DIVMTQATPSVPVTPGESVSISCRSSKSLLHSNGNTFLFWFLQRPGQSPQLLIYRMSDLASGVPDRFSGSGSGTAFTLRISRVEAEDVGIYYCMQHLEYPFTFGSGTKLEIK
notes: mIgG1

target: T5, human FcRn (human, UniProt P55899 24-297; P61769 21-119, limits assumed, biotinylated); experiment: SPR, pH6.0
T5 construct: bought; also called FcRn pH6
Wherever AntiCD3/CD28 (CD4 T cell proliferation) repeat 1 is given: test concentration or dose not given here.
Wherever AntiCD3/CD28 (CD4 T cell proliferation) repeat 2 is given: test concentration or dose not given here.
Wherever AntiCD3/CD28 (CD69+ CD4 T cells) repeat 1 is given: test concentration or dose not given here.
Wherever AntiCD3/CD28 (CD69+ CD4 T cells) repeat 2 is given: test concentration or dose not given here.
Wherever MLR (CD4 T cell proliferation) repeat 1 is given: test concentration or dose not given here.
Wherever MLR (CD4 T cell proliferation) repeat 2 is given: test concentration or dose not given here.
Wherever T cell reporter (NFκB signaling) is given: test concentration or dose not given here.

T5 sequence (P55899 24-297 limits assumed, chain 1 of 2): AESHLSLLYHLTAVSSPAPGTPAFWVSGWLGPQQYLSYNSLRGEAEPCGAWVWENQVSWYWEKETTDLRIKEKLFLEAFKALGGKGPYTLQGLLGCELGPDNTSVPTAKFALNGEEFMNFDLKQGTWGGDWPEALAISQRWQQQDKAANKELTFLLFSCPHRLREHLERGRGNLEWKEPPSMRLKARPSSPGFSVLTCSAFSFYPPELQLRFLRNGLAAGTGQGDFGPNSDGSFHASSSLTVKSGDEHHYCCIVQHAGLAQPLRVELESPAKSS
T5 sequence (P61769 21-119 limits assumed, chain 2 of 2): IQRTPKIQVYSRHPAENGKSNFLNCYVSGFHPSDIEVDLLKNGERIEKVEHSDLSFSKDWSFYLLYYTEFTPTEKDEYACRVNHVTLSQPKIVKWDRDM

Binder	avidity (FcRn pH6) [nM]
B1	14.2

Target: T1, soluble cynomolgus macaque BTLA …
Experiment: SPR Biacore 8K 37C, single cycle kinetics;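 further: antibody captured on sensor chip, soluble BTLA extracellular domain flowed over at several concentrations in HBS-EP pH 7.4, rates fitted after subtracting isotype-control reference channel and blank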
Procedure: (§1) The binding affinity and kinetics of humanised BTLA agonist antibodies to human or cynomolgus BTLA were determined by surface plasmon resonance using the Biacore 8K (GE Healthcare). […] Anti-BTLA antibody was then captured onto the biosensor surface and a negative control antibody (human IgG1k isotype control; Sino Biological cat #HG1K) captured in the reference channel. Various concentrations of monomeric soluble human BTLA extracellular domain (BTLA^K31-R151, produced recombinantly in house) or soluble cynomolgus macaque BTLA extracellular domain (BTLA^K31-R151, produced recombinantly in house) were then injected over the immobilized antibodies in the buffer HBS-EP (GE Healthcare, cat #BR100669), pH 7.4 (HBS-P) at 37° C., in a single cycle kinetics analysis.

Binder	Kd [nM]	koff [s⁻¹]	kon [M⁻¹ s⁻¹]
B2	695	0.0507	72900

target: T6, monomeric soluble human BTLA extracellular domain (BTLA K31-R151) (human, UniProt Q7Z6A9 31-151); experiment: SPR Biacore 8K 37C, single cycle kinetics;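 further: antibody captured on sensor chip, soluble BTLA extracellular domain flowed over at several concentrations in HBS-EP pH 7.4, rates fitted after subtracting isotype-control reference channel and blank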
T6 construct: also called hBTLA; monomeric BTLA
Procedure: as §1

Binder	Kd [nM]	koff [s⁻¹]	kon [M⁻¹ s⁻¹]
B2	10.9	0.00756	694000

target: T2, human FcγR2B; experiment: SPR 37C, steady state;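 further: fc variants captured on chip-bound human BTLA ectodomain, recombinant FcγR ectodomains injected as analyte at varied concentrations, double-referenced equilibrium binding fitted to Langmuir model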
Procedure: (§2) For the low affinity FcγRs (FcγR2A, FcγR2B, FcγR3A and FcγR3B) the interactions were assessed by surface plasmon resonance with the recombinantly expressed FcRs (extracellular domains only) as analyte. Briefly, recombinant human BTLA extracellular domain (BTLA^K31-R151) was covalently immobilised to both flow cells of all channels of a CMS Series S sensor chip using the GE Healthcare Amine coupling kit. The 2.8.6 Fc variant to be assessed was then captured (approx. 500-1000 response units) in flow cell 2 of each channel. Steady state affinity analysis was then performed by injecting varying concentrations of FcR in multiple cycles and measuring equilibrium binding. Double referencing was used (subtracting the signal in the reference Fc1 and also subtracting the signal from a blank zero concentration injection). KDs were calculated from the Langmuir curves (plotting equilibrium binding against analyte concentration to determine the concentration required for half maximal binding).

Binder	Kd [mM]
B3	0.876
B1	1.17

target: T7, human FcγR3A 158V (human, UniProt P08637 17-208); experiment: SPR 37C, steady state;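 further: fc variants captured on chip-bound human BTLA ectodomain, recombinant FcγR ectodomains injected as analyte at varied concentrations, double-referenced equilibrium binding fitted to Langmuir model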
T7 construct: extracellular domain
T7 sequence (P08637 17-208 F176V): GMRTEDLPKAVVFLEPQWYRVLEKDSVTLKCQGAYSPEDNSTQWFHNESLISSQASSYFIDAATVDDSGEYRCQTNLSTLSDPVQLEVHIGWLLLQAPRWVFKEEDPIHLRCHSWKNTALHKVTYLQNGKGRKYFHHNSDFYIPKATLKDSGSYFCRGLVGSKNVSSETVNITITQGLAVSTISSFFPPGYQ
Procedure: as §2

Binder	Kd [mM]
B1	1.41

target: T3, human FcγR2A 131R; experiment: SPR 37C, steady state;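 further: fc variants captured on chip-bound human BTLA ectodomain, recombinant FcγR ectodomains injected as analyte at varied concentrations, double-referenced equilibrium binding fitted to Langmuir model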
Procedure: as §2

Binder	Kd [µM]
B1	399

target: T4, human FcγR2A 131H; experiment: SPR 37C, steady state;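 further: fc variants captured on chip-bound human BTLA ectodomain, recombinant FcγR ectodomains injected as analyte at varied concentrations, double-referenced equilibrium binding fitted to Langmuir model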
Procedure: as §2

Binder	Kd [µM]
B3	771

Target: T1, soluble cynomolgus macaque BTLA …
Experiment: SPR 37C, mAb captured, BTLA ECD analyte;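 further: Anti-BTLA mouse antibodies captured on a sensor chip via polyclonal anti-mouse IgG, isotype control antibody in reference channel, rates fitted after reference and blank subtraction to derive Kd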

Binder	Kd [nM]
B4	161
B5	6.08
B6	168

target: T6, monomeric soluble human BTLA …; experiment: SPR 37C, mAb captured, BTLA ECD analyte;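 further: Anti-BTLA mouse antibodies captured on a sensor chip via polyclonal anti-mouse IgG, isotype control antibody in reference channel, rates fitted after reference and blank subtraction to derive Kd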

Binder	Kd [nM]	koff [s⁻¹]	kon [M⁻¹ s⁻¹]
B7	4010	1.63	406000
B8	722	0.155	215000
B9	0.66	0.00016	243000

target: full length human BTLA expressed on cells (human, UniProt Q7Z6A9 31-289); experiment: cell-based or functional assay

Binder	T cell reporter (NFκB signaling) [% inhibition]
B7	27
B4	21
B8	30
B9	22
B5	26
B6	29

target: chimeric BTLA of humanised-BTLA mice (human extracellular region, murine transmembrane and signaling … (human; mouse, UniProt Q7TSA3 184-306, limits assumed); experiment: cell-based or functional assay
Sequence (Q7TSA3 other isoform, or with tags, fused parts or gaps mutant limits assumed): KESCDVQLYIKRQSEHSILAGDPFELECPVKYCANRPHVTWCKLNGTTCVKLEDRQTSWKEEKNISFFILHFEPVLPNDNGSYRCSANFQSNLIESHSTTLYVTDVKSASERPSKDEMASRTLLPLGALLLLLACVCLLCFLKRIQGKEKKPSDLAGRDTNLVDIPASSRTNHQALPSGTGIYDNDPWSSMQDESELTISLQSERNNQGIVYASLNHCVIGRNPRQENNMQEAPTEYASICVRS

Binder	AntiCD3/CD28 (CD4 T cell proliferation) repeat 1 [% inhibition]	AntiCD3/CD28 (CD4 T cell proliferation) repeat 2 [% inhibition]	AntiCD3/CD28 (CD69+ CD4 T cells) repeat 1 [% inhibition]	AntiCD3/CD28 (CD69+ CD4 T cells) repeat 2 [% inhibition]	MLR (CD4 T cell proliferation) repeat 1 [% inhibition]	MLR (CD4 T cell proliferation) repeat 2 [% inhibition]
B7	9	9	22	34	7	24
B4	12	4	29	29	42	-2
B8	5	9	30	40	28	23
B9	13	23	52	44	23	31
B5	26	19	47	53	31	16
B6	11	19	35	30	12	10
